According to article doi:10.1101/2024.07.16.603715:

Biological target: PTPRD/S (signal of the anti-PTPR blot in BN-PAGE)
Assay: native gel or EMSA

stoichiometry N: 1
Substance: tetraspanin T178B (natural protein)
